B1: Zinc finger protein CONSTANS (Arabidopsis thaliana (Mouse-ear cress)), Q39057 (parent)
chain: MLKQESNDIGSGENNRARPCDTCRSNACTVYCHADSAYLCMSCDAQVHSANRVASRHKRVRVCESCERAPAAFLCEADDASLCTACDSEVHSANPLARRHQRVPILPISGNSFSSMTTTHHQSEKTMTDPEKRLVVDQEEGEEGDKDAKEVASWLFPNSDKNNNNQNNGLLFSDEYLNLVDYNSSMDYKFTGEYSQHQQNCSVPQTSYGGDRVVPLKLEESRGHQCHNQQNFQFNIKYGSSGTHYNDNGSINHNAYISSMETGVVPESTACVTTASHPRTPKGTVEQQPDPASQMITVTQLSPMDREARVLRYREKRKTRKFEKTIRYASRKAYAEIRPRVNGRFAKREIEAEEQGFNTMLMYNTGYGIVPSF
partner: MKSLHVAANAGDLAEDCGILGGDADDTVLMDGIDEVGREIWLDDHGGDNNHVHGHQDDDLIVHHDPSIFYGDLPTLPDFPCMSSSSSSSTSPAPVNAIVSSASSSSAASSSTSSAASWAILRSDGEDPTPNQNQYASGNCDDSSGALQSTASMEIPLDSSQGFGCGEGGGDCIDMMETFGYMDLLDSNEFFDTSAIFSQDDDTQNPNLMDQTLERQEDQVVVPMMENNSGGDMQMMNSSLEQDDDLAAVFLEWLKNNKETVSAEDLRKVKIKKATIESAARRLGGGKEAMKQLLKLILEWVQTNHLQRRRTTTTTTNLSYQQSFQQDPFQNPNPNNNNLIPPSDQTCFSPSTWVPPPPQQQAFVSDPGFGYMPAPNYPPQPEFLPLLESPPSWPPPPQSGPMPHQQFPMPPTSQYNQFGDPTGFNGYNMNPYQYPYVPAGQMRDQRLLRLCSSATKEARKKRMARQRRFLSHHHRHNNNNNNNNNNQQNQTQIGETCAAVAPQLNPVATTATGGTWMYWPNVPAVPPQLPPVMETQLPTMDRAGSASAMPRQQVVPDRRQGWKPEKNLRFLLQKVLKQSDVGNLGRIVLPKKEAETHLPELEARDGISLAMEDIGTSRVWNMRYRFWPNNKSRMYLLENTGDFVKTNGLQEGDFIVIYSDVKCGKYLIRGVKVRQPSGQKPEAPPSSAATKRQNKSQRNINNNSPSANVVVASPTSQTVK

Variants of: B1
Conditions: with abi3_arath ABI3, Q01593

| Variant | effect of a mutation on the interaction |
| --- | --- |
| R340Q | decreasing interaction strength |
| P339L | decreasing interaction |

From IntAct's records for PubMed 10743655
